Test results taken from patent US20240262894A1 (INSTITUTE OF MICROBIOLOGY CHINESE ACADEMY OF SCIENCES, published 2024).

What was measured:
[1] = target: T1, F protein of RSV B-type clinical isolates (on virus) (respiratory syncytial virus B-type …); assay: cell-based or functional assay
[2] = target: T1, F protein of RSV B-type clinical …; assay: cell-based or functional assay; remark: listed apart in the source
[3] = target: T2, F protein of RSV A-type A2 strain (on virus) (respiratory syncytial virus A-type A2 …, UniProt P03420 26-574); assay: cell-based or functional assay
[4] = target: T3, post-fusion F protein (FΔFP) of RSV A2 strain (respiratory syncytial virus A2 strain, UniProt P03420 26-513); assay: SPR (Biacore), F protein immobilised on CM5 chip, Fab as analyte
T3 construct: also called RSV-FΔFP; RSV post-fusion F protein

[5] = target: T4, pre-fusion F protein DS-Cav1 of RSV A2 strain (respiratory syncytial virus A2 strain); assay: as above
T4 construct: Purified from 293T cells; also called RSV-F (DS-Cav1); RSV pre-fusion F protein

[6] = target: F protein of RSV A-type Long strain (on virus) (respiratory syncytial virus A-type Long …, UniProt P12568 26-574); assay: cell-based or functional assay
[7] = target: T2, F protein of RSV A-type A2 strain (on …); assay: cell-based or functional assay; remark: listed apart in the source
[8] = target: F protein of RSV A-type Long strain (on virus) (respiratory syncytial virus A-type Long …, UniProt P12568 26-574); assay: cell-based or functional assay; remark: listed apart in the source
[9] = target: F protein of RSV A-type A2 strain (on virus) (respiratory syncytial virus A-type A2 …, UniProt P03420 26-574); assay: cell-based or functional assay; remark: listed apart in the source

B1: RV8 antibody (human IgG1) (antibody, V domains shown)
VH: QVQLVQSGGGVVQPGRSLRLSCAASGFTFSSYAMHWVRQAPGKGLEWMAVISYDGSNTYYADSVKGRFTISRDNSKNTLYLQMNSLRAEDTAMFYCARDYCSRGTCYHDYWGQGTLVTVSS
VL: DIVLTQSPSSLSASVGDRVTITCRASQDIRNDLSWYQQKPGKAPKLLIYAASSLQSGVPSRFSGSGSGTDFTLTISSLQPEDFATYSCLQDYNYPQTFGQGTKVEIKR
- IC50 (ng/mL), neutralization of RSV B-type clinical isolates on Hep2 cells, flow cytometry [1]: 183 ng/mL
- neutralization activity against RSV B-type clinical isolates relative to palivizumab [2]: 7.7 times
- IC50 (ng/mL), neutralization of RSV A-type A2 strain on Hep2 cells, flow cytometry [3]: 540 ng/mL

B2: RV8 Fab (Fab, V domains shown)
VH: B1 VH
VL: B1 VL
notes: Fab made by enzyme digestion of the human IgG1/kappa antibody; also called Fab of RV8 antibody; not shown: limits not st
- Kd [4]: 17.5 nM
- Kd [5]: 25.6 nM

B3: RV10 Fab (Fab, V domains shown)
VH: QVQLVQSGAEVKKPGASVKVSCKASGYTFTTYDFHWVRQAPGQGLEWIGWLNPDNGNTKHSQKFQGRVTFTRDTSASTAFMELSSLRSEDTAVYYCTRAPWWWYFDYWGQGTLVTVSS
VL: NFMLTQPHSVSESPGKTVTISCTRSSGSIASNYVQWCQQRPGSSPTTVIYEDNQRPSGVPDRFSGSIDSSSNSASLTISGLRTEDEADYYCQSYDTSNAVFGGGTKLTVLG
notes: Fab made by enzyme digestion of the human IgG1/lambda antibody; also called Fab of RV10 antibody; not shown: limits not st
- Kd [4]: 7.1 nM
- Kd [5]: 10.1 nM

B4: RV7 Fab (Fab, V domains shown)
VH: QVQLQESGPGLVKPSETLSLTCTVSGGSISSYYLSWIRQPPGKGLEWIGYIYHTGSTNYNPSLKSRVTISVHSSKNQFSLKLTSVTAADTAVYYCARHMRIVTTIDYWGQGTLVTVSS
VL: DIVMTQSPSSLSASVGDRVTLTCRASQGISSYLAWYQQKPGKVPKLLIYAASTLQSGVPSRFSGSGSGTDFTLTISSLQPEDVATYYCQKYNSAPWTFGQGTKVEIKR
notes: Fab made by enzyme digestion (immobilised enzyme beads, Thermo 20341) of the human IgG1/kappa antibody; also called Fab of RV7 antibody; not shown: limits not st
- binding result [4]: no binding
- binding result [5]: no binding

B5: RV11 antibody (human IgG1) (antibody, V domains shown)
VH: QVQLVQSGGGVVQPGRSLRLSCAASGFSFTNYGMHWVRQAPGKGLEWVAVISYDDGSDKYYADSVKGRFTISRDNSKNTLYLQMNSLRAEDTAVYYCVRDPTGDYGDFPEQDGYYYYYGMDVWGQGTTVTVSS
VL: QAVLTQPPSASGTPGQRVTISCSGSSLNIGSNYVYWYQQLPGTAPKFLIYKNNQRPSGVPDRFSGSKSGTSASLAISGLRSEDEADYYCAAWDDSLSGVVFGGGTKLTVLG
- IC50 (ng/mL), neutralization of RSV B-type clinical isolates on Hep2 cells, flow cytometry [1]: 31.4 ng/mL
- neutralization activity against RSV B-type clinical isolates relative to palivizumab [2]: ~45 times
- neutralization activity against RSV Long relative to palivizumab [6]: ~16 times
- neutralization activity against RSV A2 relative to palivizumab [7]: ~18 times
- IC50 (ng/mL), neutralization of RSV A-type A2 strain on Hep2 cells, flow cytometry [3]: 42.3 ng/mL

B6: Palivizumab (antibody, V domains shown)
VH: QVTLRESGPALVKPTQTLTLTCTFSGFSLSTSGMSVGWIRQPPGKALEWLADIWWDDKKDYNPSLKSRLTISKDTSKNQVVLKVTNMDPADTATYYCARSMITNWYFDVWGAGTTVTVSS
VL: DIQMTQSPSTLSASVGDRVTITCKCQLSVGYMHWYQQKPGKAPKLLIYDTSKLASGVPSRFSGSGSGTEFTLTISSLQPDDFATYYCFQGSGYPFTFGGGTKLEIK
- IC50 (ng/mL), neutralization of RSV A-type Long strain on Hep2 cells, flow cytometry [8]: 897 ng/mL
- IC50 (ng/mL), neutralization of RSV A-type A2 strain on Hep2 cells, flow cytometry [9]: 751 ng/mL
